# Experimental data taken from US6989144.
# Molecular target: GPVI on baboon platelets (baboon)
# Test: flow cytometry, washed baboon platelets; positive control
binder,measurement,value
convulxin (Cvx) purified from the venom of Crotalus durissus terrificus (ligand) chain 1: GLHCPSDWYYYDQHCYRIFNEEMNWEDAEWFCTKQAKGAHLVSIKSAKEADFVAWMVTQNIEESFSHVSIGLRVQNKEKQCSTKWSDGSSVSYDNLLDLYITKCSLLKKETGFRKWFVASCIGKIPFVCKFPPQC chain 2: GFCCPSHWSSYDRYCYKVFKQEMTWADAEKFCTQQHTGSHLVSFHSTEEVDFVVKMTHQSLKSTFFWIGANNIWNKCNWQWSDGTKPEYKEWHEEFECLISRTFDNQWLSAPCSDTYSFVCKFEA,Baboon fluorescence intensity,72
same,Baboon platelets % positive,95%
